The target of test [1] is 鼠CLDN18.2(mCLDN18.2) (mouse) (UniProt P56857). As to the kind of experiment: cell ELISA on fixed mCLDN18.2+cell; background.
For test [2], the target named is 人CLDN18.2(hCLDN18.2) (human) (UniProt P56856). As to the kind of experiment: flow cytometry, CF633-labelled antibody 2.5μg/ml on hCLDN18.2+cell; background.
Test [3] has the same target. In words: flow cytometry, CF488-labelled antibody 10μg/ml on hCLDN18.2+cell; range over the binding value and the time points. Background: A flow cytometer gives signals particle by particle.
Test [4] has the same target. In words: flow cytometry, CF633-labelled antibody 10μg/ml on hCLDN18.2+cell; range over the binding value and the time points.

Several values for one entry are separate records, joined by “and”; a condition that tells them apart may be missing. Equal entries are not always repeated.

UniProt P56857, sequence (P56857 other isoform, or with tags, fused parts or gaps, form in doubt): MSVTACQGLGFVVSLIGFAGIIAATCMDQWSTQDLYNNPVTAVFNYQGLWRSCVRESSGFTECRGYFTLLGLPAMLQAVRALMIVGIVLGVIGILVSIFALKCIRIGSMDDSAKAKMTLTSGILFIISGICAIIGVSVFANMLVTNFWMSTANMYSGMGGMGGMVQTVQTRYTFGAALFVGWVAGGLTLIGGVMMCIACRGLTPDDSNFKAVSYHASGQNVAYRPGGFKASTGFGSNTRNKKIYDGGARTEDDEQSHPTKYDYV

In turn, Neg IgG (和靶点没有结合的非特异性抗体) (antibody) gave an Emax in test [1] of 0.19. Besides, the 结合值 (FACS读值) in test [2] is 932. The 荧光强度值(本底) in test [3] was 1280 to 3480; in test [4] it was 23.2 and 14.9.

The values above are taken from patent CN111110862A.
